One assay has as its target T1, 3×FLAG-PRL-1 (human, UniProt Q93096 1-170).
T1 construct: Expressed in HEK293T cells, tested in cell lysate; Order of tag and PRL follows the printed name only; also called 3xFLAG-PRL-1; not shown: 3×FLAG tag from p3×FLAG-CMV-14
T1 sequence (looked up): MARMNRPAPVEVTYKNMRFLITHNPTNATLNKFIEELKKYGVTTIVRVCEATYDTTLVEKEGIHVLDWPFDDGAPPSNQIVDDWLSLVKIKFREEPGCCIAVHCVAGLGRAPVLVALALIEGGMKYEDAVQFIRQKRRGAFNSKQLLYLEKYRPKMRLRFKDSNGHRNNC
Briefly: immunoprecipitation from HEK293T lysate with nanobody-coupled Dynabeads, anti-FLAG blot. Here is the method:
(§1) HEK293T cells (˜20 million) were lysed for 30 minutes with intermittent vortexing in Pierce IP lysis buffer (Thermo 87788) supplemented with 1% protease inhibitor cocktail (IP buffer) at 500 μl per 10 million cells and spun at 12,000 rpm for 10 minutes at 4° C. to pellet cell debris. Protein concentration was quantified using the Quick Start Bradford 1× Dye Reagent (Biorad, 5000205). 150 μL of nanobody-coupled beads were washed in 1 mL of PBS for 5 minutes, precipitated, then equilibrated in 500 μL of IP buffer for 5 minutes. 2.5 mg of total extracted protein was added to the balanced nanobody-beads complex for incubation with rocking at 4° C. overnight. After washing the beads-protein complex in cold PBS four times, 50 μL 2× Laemmli Sample Buffer (Biorad, 161-0737) with 2-Mercaptoethanol (Fisher Scientific, 034461-100) was added to the beads, the mixture was boiled at 95° C. for 10 minutes, and the supernatant was collected for western blot analysis.
(§2) PRL-3 substrates remain largely undefined, in part due to insufficient tools for cell-based studies. The current commercially available PRL-3 antibodies have not been extensively validated for specificity towards PRL-3 over other PRLs. To address this, the ability of the anti-PRL-3 nanobodies to identify PRL-3 protein in cell lysate was tested. Anti-PRL-3 nanobodies were coupled to superparamagnetic Dynabeads® M-270 Epoxy beads and used in immunoprecipitation of HEK293T cells expressing either 3×FLAG-PRL-1, -2, or -3. All nanobodies selectively pulled-down 3×FLAG-PRL-3 over PRL-1 and PRL-2, as assessed by anti-FLAG immunoblot (FIGS. 7A and 9A-I). Some nanobodies were more specific to PRL-3 than others; nanobodies 4, 16, 19, and 84 pulled down small amounts of 3×FLAG-PRL-1 and/or PRL-2 (FIG. 3A). Successful nanobody coupling to Dynabeads was confirmed by the presence of 6×-His-tag in all samples (FIG. 3B). […] In total, anti-PRL-3 nanobodies 10, 26, and 91 can be used to specifically immunoprecipitate PRL-3, with no binding to PRL-1 or PRL-2.

The next assay deals with T2, 3×FLAG-PRL-2 (human, UniProt Q12974 1-164).
T2 construct: Expressed in HEK293T cells, tested in cell lysate; Order of tag and PRL follows the printed name only; also called 3xFLAG-PRL-2; not shown: 3×FLAG tag from p3×FLAG-CMV-14
T2 sequence (looked up): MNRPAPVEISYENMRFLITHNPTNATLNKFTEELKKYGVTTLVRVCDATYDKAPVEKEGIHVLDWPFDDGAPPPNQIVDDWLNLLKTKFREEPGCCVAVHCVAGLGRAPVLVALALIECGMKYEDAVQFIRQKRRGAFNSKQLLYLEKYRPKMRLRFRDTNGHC
The description is as above. The method, then:
as §1, §2

In a further assay the target is T3, GFP-PRL-1 (UniProt Q93096 1-170).
T3 construct: Expressed in HCT116 cells, fixed and permeabilized for immunofluorescence; also called CMV:GFP-PRL-1
T3 sequence (looked up): T1 sequence (looked up)
Briefly: immunofluorescence on fixed, permeabilized transfected HCT116 cells. Here is the method:
(§3) HCT116 colorectal cancer cells were transfected with A—CMV:GFP, CMV:GFP-PRL-1, CMV:GFP-PRL-2, or CMV:GFP-PRL-3 for 24 hours prior to cell fixation and permeabilization. Immunofluorescence assays were completed with 1:1000 1 mg/mL NB91 followed by 1:400 Alexa Fluor® 594-AffiniPure Goat Anti-Alpaca IgG, VHH domain and show nanobodies detect PRL-3 but not PRL-1 or PRL-2.
(§4) Transfected cells were plated at 5,000 cells per well in 96-well black glass bottomed plates (Cellvis, P96-1.5H-N). All solution exchanges and imaging occurred in the 96-well plate. 24 hours post-transfection cells were fixed in 4% paraformaldehyde (VWR, AAJ61899-AK) for 15 minutes, rinsed in PBS, permeabilized for 10 minutes in 1% 100× Triton (Sigma, X100-100), and rinsed in PBS. Blocking solution of 2% BSA in PBS was applied for 1 hour to all wells. All nanobodies were diluted to 1 mg/ml in blocking solution, and further diluted 1:1000 and incubated with the cells for 1 hour at room temperature followed by five PBS washes. Detection was carried out using an anti-alpaca IgG VHH conjugated to Alexa Fluor-594 (Jackson ImmunoResearch, 128-585-232) diluted 1:400 in blocking solution, and counterstained with Hoechst, 1:1000 dilution (ThermoFisher, H3570). All wells were washed in PBS five times prior to imaging. Images were acquired with a Nikon MR confocal using the 40× water objective. […]

A further assay has as its target T4, GFP-PRL-2 (UniProt Q12974 1-164).
T4 construct: Expressed in HCT116 cells, fixed and permeabilized for immunofluorescence; also called CMV:GFP-PRL-2
T4 sequence (looked up): T2 sequence (looked up)
Described as above. Here is the method:
as §3, §4

Changes are numbered by the printed parent chain.

B1: NB26 (VHH)
VHH: QVQLQESGGGLVQPGGSLKLSCVVTGLHYYTEGWFRQAPGKEREGVSCISSSDGRTDYIDSVKGRFTISEDNDNKTVYLQMNTLKPDDTGVYYCVAERGPRGSTWWETYDYWGQGTHVTVSS
notes: Alpaca nanobody, C-terminal 6xHis tag intact; also called nanobody 26; Nanobody 26
As to B1, the binding result with 3×FLAG-PRL-1 and with 3×FLAG-PRL-2 was “no binding” throughout.

B2: NB91 (VHH)
VHH: QVQLQESGGGLVQTGGSLRLSCAASQSTFNFDVMGWYRLAPGKQREFLTSITNGGNIYYADSVKGRFTIARDDSKTTMYLEMNSLKPEDTAVYTCYGQTHKPRVTTSWGQGTQVTVSS
notes: Alpaca nanobody expressed from pMES4 in E. coli; also called nanobody 91; Nanobody 91
On to B2, for which the binding result with GFP-PRL-1 was “no binding (tested: 1:1000 of 1 mg/mL)”; with GFP-PRL-2, “no binding (tested: 1:1000 of 1 mg/mL)”; with 3×FLAG-PRL-1 it was “no binding”; with 3×FLAG-PRL-2 it was “no binding”.

B3: NB10 (VHH)
VHH: B2 VHH with D32N, T49P, I51L, M78T
notes: Alpaca nanobody, C-terminal 6xHis tag intact; also called nanobody 10
With B3, the binding result with 3×FLAG-PRL-1 and with 3×FLAG-PRL-2 was “no binding” in each case.

(Values after patent US20220106406A1 (UNIVERSITY OF KENTUCKY RESEARCH FOUNDATION, published 2022).)
